The text below walks through data of PMC3536784 (PLoS ONE, 2013).

The chains are these.
B1: biphenyl dioxygenase (BPDO_(B356)) α-subunit from Pandoraea pnomenusa B-356 (enzyme)
chain: MSSTMKDTQEAPVRWSRNWTPDAIRALVDQDNGKLDARIYADQDLYQLELERVFGRSWLMLGHETHIPKIGDYLTTYMGEDPVIMVRQKDQSIKVFLNQCRHRGMRIVRSDGGNAKAFTCTYHGWAYDIAGNLVNVPFEKEAFCDKKEGDCGFDKADWGPLQARVETYKGLVFANWDPEAPDLKTYLSDAMPYMDVMLDRTEAGTEAIGGIQKWVIPCNWKFAAEQFCSDMYHAGTMSHLSGVLAGLPPEMDLTQIQLSKNGNQFRSAWGGHGAGWFINDSSILLSVVGPKITQYWTQGPAAEKAARRVPQLPILDMFGQHMTVFPTCSFLPGINTIRTWHPRGPNEVEVWAFVLVDADAPEDIKEEFRLQNIRTFNAGGVFEQDDGENWVEIQRVMRGHKAKSTSLCAKMGLNVPNKNNPAYPGKTAYVYAEEAARGMYHHWSRMMSEPSWDTLKP
notes: Co-produced and co-purified with the β-subunit as the (αβ)3 oxygenase; three copies in the hexamer; Holds a Rieske Fe2S2 cluster and a mononuclear Fe(II); also called α of BphAE; source: heterologously produced and purified anaerobically as described previously [17]
B2: biphenyl dioxygenase (BPDO_(B356)) β-subunit from Pandoraea pnomenusa B-356 (enzyme, UniProt Q46373 1-186, looked up)
chain: MISTPLSKEFEWPAKPVSLELQHQVEQFYYREAQLLDHHAFQAWFALLAEDIHYWMPIRTVRTAREQGLEYVPAGANAHFDDTHATMYGRIRQKTSDLNWAEDPPSRTRHLVSNVIVREMDTPGTLEVASAFLLYRSRLERQVDVFAGERRDVLRIADNPLGFQIAKRTIILDQSTVLANNLSVFF
notes: the final models include the complete β-subunit; Co-produced and co-purified with the α-subunit as the (αβ)3 oxygenase; three copies in the hexamer; also called β of BphAE; BPDO β; source: heterologously produced and purified anaerobically as described previously [17]

Data set [1] concerns the molecule itself. Put plainly: crystal structure; crystals grown anaerobically by sitting drop vapor diffusion (citrate pH 5.8 or MES pH 6.0), space group R3, one αβ protomer in the asymmetric unit; three αβ protomers about the crystallographic three-fold axis form the (αβ)3 hexamer; without and with biphenyl.
The target in data set [2] is B1. The description is as above. The settings on record: both partners purified.

Take B1: the binding result in data set [1] is “binds”.
Turning to B2, the binding result in data set [2] and in data set [1] was “binds” each time.
